# Measurements reported in US20150258192A1, “COMPOSITIONS AND METHODS FOR PREVENTING OR TREATING CHRONIC LUNG ALLOGRAFT DYSFUNCTION (CLAD) AND IDIOPATHIC PULMONARY FIBROSIS (IPF)” (priority 2014, published 2015).
# No end group written: not given here.
# Molecular target: Abl(Q252H)(h) (Homo sapiens, UniProt P00519, Q252H)
# Experiment: Kinase Profiling Assay
# Type: biochemical
# Settings: peptide 100 μM
# Method in brief: (§1)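 Kinase inhibition by MK2 inhibitory peptides was profiled radiometrically, with substrate phosphorylation from labeled ATP read by scintillation after capture on a charged filter. Values are relative to 100% activity and measured in duplicate.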
row,Sequence,% activity [%]
1,FAKLAARLYRKALARQLGVAA [MMI-0300],82
2,HRRIKAWLKKIKALARQLGVAA (Mammal) [MMI-0500],40
3,KAFAKLAARLYRKALARQLGVAA [MMI-0400],98

# Molecular target: T1, BrSK1(h) (Homo sapiens, UniProt Q8TDC3)
# T1 sequence (Q8TDC3 1-778): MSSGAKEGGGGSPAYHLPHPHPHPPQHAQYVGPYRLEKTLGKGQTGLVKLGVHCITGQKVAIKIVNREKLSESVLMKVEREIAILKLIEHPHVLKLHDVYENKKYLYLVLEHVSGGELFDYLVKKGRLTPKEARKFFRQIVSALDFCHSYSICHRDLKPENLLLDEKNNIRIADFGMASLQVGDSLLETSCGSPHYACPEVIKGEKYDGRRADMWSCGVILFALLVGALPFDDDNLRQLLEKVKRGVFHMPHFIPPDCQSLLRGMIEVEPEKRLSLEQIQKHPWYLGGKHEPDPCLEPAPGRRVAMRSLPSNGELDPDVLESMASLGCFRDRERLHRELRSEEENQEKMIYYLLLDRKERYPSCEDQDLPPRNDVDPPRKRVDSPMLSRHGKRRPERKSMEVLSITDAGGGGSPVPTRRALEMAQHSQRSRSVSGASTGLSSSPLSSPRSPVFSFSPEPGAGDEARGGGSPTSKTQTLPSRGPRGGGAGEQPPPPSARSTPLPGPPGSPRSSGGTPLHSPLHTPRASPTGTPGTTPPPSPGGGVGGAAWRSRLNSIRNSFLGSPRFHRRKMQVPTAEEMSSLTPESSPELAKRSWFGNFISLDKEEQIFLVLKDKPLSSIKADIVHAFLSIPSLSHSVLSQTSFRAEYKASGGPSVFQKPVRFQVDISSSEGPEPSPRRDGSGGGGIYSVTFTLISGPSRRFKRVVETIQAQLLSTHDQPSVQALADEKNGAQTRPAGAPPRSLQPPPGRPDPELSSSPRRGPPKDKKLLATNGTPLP
# Experiment: Kinase Profiling Assay
# Type: biochemical
# Settings: peptide 100 μM
# Method in brief: as §1
row,Sequence,% activity [%]
1,FAKLAARLYRKALARQLGVAA [MMI-0300],67
2,HRRIKAWLKKIKALARQLGVAA (Mammal) [MMI-0500],72
3,KAFAKLAARLYRKALARQLGVAA [MMI-0400],76
4,YARAAARQARAKALARQLGVAA [MMI-0100],100
5,YARAAARQARAKALNRQLGVA (Mammal) [MMI-0200],93

# Molecular target: CDK7/cyclinH/MAT1(h) (Homo sapiens, UniProt P50613)
# Sequence (P50613 whole entry): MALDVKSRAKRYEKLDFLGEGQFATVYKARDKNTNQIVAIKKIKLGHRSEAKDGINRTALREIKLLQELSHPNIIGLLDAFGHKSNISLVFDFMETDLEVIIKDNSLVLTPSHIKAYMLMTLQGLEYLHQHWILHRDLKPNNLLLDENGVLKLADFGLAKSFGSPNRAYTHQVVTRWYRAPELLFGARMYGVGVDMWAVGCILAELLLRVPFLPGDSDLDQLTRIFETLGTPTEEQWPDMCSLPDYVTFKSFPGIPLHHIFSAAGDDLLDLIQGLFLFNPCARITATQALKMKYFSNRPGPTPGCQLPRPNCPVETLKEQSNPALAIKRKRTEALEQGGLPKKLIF
# Sequence (P51946 whole entry partner): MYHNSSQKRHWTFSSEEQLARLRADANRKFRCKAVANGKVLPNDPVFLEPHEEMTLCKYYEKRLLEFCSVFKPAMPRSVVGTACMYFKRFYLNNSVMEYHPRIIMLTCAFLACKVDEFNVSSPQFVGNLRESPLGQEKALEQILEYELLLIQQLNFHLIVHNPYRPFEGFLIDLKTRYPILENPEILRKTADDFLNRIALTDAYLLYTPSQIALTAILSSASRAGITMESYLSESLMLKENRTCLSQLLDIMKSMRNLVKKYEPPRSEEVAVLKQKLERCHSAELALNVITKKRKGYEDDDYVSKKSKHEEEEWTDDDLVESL
# Sequence (P51948 whole entry partner): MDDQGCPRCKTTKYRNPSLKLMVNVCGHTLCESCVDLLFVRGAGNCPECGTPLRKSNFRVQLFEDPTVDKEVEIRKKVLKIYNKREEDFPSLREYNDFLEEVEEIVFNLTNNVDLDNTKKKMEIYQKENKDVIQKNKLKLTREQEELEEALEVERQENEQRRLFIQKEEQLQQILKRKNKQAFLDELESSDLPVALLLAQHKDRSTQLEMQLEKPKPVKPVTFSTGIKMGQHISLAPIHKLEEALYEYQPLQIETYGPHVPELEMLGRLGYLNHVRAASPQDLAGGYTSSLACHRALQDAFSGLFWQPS
# Experiment: Kinase Profiling Assay
# Type: biochemical
# Settings: peptide 100 μM
# Method in brief: as §1
row,Sequence,% activity [%]
1,FAKLAARLYRKALARQLGVAA [MMI-0300],65
2,HRRIKAWLKKIKALARQLGVAA (Mammal) [MMI-0500],15
3,KAFAKLAARLYRKALARQLGVAA [MMI-0400],47
4,YARAAARQARAKALNRQLGVA (Mammal) [MMI-0200],67

# Molecular target: T2, EphB1(h) (Homo sapiens, UniProt P54762)
# T2 sequence (P54762 18-984): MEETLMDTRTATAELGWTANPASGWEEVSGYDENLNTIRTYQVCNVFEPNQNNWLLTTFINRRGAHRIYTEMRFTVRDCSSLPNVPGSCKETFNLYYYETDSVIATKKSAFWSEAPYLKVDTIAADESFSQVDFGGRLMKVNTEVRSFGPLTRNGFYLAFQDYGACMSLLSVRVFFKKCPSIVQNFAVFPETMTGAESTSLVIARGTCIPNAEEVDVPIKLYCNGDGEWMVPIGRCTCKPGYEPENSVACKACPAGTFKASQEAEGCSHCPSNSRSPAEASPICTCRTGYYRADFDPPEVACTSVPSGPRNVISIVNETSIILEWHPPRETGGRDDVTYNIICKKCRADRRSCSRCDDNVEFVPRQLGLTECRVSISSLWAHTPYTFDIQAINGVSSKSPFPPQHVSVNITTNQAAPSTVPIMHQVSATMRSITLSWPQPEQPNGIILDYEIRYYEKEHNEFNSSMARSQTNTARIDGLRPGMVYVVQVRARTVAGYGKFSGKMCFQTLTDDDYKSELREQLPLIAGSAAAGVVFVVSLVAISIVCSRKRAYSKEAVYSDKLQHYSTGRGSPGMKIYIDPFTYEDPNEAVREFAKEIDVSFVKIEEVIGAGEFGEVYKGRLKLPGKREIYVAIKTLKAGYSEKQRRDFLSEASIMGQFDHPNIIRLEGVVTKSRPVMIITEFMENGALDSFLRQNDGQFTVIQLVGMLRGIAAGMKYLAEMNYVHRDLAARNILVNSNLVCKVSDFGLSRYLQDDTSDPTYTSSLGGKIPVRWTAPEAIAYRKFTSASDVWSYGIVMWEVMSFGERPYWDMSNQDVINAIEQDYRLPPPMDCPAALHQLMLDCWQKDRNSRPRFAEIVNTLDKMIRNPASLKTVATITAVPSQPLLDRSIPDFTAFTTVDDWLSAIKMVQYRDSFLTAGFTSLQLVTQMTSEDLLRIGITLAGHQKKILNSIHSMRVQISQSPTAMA
# Experiment: Kinase Profiling Assay
# Type: biochemical
# Settings: peptide 100 μM
# Method in brief: as §1
row,Sequence,% activity [%]
1,FAKLAARLYRKALARQLGVAA [MMI-0300],44
2,HRRIKAWLKKIKALARQLGVAA (Mammal) [MMI-0500],37
3,KAFAKLAARLYRKALARQLGVAA [MMI-0400],58
4,YARAAARQARAKALARQLGVAA [MMI-0100],99
5,YARAAARQARAKALNRQLGVA (Mammal) [MMI-0200],95

# Molecular target: Fms(Y969C)(h) (Homo sapiens, UniProt P07333, Y969C)
# Experiment: Kinase Profiling Assay
# Type: biochemical
# Settings: peptide 100 μM
# Method in brief: as §1
row,Sequence,% activity [%]
1,FAKLAARLYRKALARQLGVAA [MMI-0300],72
2,KAFAKLAARLYRKALARQLGVAA [MMI-0400],91
3,YARAAARQARAKALARQLGVAA [MMI-0100],126
4,YARAAARQARAKALNRQLGVA (Mammal) [MMI-0200],88

# Molecular target: T3, KDR(h) (Homo sapiens, UniProt P35968)
# T3 construct: purchased Millipore
# T3 sequence (P35968 20-1356): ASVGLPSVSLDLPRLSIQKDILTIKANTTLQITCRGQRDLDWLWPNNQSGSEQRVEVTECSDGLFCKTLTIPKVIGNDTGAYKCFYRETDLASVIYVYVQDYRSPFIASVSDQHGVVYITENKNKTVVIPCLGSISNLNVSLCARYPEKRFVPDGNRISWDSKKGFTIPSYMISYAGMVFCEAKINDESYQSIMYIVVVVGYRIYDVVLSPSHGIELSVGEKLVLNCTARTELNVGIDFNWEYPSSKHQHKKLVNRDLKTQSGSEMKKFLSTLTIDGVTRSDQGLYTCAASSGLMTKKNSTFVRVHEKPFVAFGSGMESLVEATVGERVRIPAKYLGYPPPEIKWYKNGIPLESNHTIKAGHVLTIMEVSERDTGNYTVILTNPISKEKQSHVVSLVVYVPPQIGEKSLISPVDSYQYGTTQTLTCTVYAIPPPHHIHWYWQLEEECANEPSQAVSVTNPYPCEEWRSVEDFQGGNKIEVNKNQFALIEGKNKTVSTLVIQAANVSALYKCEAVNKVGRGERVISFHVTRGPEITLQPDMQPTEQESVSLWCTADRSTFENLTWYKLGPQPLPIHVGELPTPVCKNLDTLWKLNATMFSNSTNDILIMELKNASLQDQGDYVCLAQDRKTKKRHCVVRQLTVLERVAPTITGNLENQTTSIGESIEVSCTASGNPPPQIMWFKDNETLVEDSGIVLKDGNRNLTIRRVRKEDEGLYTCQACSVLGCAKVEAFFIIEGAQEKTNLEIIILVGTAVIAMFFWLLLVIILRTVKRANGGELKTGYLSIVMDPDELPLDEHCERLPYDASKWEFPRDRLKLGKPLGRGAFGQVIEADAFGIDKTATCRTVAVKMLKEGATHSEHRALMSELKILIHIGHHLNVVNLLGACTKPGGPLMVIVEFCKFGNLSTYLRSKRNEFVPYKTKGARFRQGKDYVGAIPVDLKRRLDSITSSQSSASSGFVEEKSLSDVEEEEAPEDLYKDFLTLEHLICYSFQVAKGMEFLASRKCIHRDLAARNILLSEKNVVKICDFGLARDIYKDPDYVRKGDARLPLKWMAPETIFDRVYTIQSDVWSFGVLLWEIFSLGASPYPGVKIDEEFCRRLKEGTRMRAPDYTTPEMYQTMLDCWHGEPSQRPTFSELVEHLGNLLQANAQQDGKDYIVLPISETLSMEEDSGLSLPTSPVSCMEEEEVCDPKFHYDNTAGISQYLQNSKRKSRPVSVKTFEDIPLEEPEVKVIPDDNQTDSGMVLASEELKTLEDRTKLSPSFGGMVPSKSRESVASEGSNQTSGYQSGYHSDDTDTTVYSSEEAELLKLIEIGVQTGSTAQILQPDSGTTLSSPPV
# Experiment: Kinase Profiling Assay
# Type: biochemical
# Settings: peptide 100 μM
# Method in brief: as §1
row,Sequence,% activity [%]
1,FAKLAARLYRKALARQLGVAA [MMI-0300],101
2,HRRIKAWLKKIKALARQLGVAA (Mammal) [MMI-0500],15
3,KAFAKLAARLYRKALARQLGVAA [MMI-0400],94
4,YARAAARQARAKALARQLGVAA [MMI-0100],100
5,YARAAARQARAKALNRQLGVA (Mammal) [MMI-0200],110

# Molecular target: PAK5(h) (Homo sapiens, UniProt Q9P286)
# Sequence (Q9P286 whole entry): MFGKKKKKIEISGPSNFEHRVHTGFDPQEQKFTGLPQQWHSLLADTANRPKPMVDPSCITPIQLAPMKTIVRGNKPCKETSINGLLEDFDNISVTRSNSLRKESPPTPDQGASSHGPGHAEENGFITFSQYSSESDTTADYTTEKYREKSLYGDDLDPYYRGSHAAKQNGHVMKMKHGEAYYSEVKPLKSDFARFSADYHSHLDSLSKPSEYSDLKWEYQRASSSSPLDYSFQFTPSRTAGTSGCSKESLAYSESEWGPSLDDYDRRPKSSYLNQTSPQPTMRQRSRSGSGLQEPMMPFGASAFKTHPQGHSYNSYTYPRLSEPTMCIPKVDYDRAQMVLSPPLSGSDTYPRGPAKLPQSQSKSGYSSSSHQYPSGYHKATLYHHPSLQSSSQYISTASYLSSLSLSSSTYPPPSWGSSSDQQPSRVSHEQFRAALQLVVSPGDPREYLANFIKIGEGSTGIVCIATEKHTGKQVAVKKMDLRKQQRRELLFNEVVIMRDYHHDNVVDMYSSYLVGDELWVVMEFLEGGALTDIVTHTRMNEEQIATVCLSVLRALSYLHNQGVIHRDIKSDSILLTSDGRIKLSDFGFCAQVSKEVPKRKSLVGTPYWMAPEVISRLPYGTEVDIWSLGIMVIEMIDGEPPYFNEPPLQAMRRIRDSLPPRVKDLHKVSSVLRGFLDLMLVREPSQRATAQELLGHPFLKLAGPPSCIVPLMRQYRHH
# Experiment: Kinase Profiling Assay
# Type: biochemical
# Settings: peptide 100 μM
# Method in brief: as §1
row,Sequence,% activity [%]
1,FAKLAARLYRKALARQLGVAA [MMI-0300],110
2,HRRIKAWLKKIKALARQLGVAA (Mammal) [MMI-0500],125
3,YARAAARQARAKALNRQLGVA (Mammal) [MMI-0200],100

# Molecular target: PKBα(h) (Homo sapiens, UniProt P31749)
# Sequence (P31749 whole entry): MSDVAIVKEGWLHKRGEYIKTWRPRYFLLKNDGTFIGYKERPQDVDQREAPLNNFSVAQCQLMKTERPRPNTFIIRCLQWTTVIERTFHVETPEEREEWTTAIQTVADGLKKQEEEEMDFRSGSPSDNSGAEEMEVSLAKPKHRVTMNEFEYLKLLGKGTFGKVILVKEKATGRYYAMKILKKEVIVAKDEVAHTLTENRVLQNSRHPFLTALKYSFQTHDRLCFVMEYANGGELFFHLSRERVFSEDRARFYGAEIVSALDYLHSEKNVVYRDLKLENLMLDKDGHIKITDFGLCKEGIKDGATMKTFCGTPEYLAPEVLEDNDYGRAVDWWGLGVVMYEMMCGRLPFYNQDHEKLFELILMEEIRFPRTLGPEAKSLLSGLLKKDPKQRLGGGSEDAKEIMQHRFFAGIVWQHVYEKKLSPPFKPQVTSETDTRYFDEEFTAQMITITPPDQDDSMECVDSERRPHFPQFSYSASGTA
# Experiment: Kinase Profiling Assay
# Type: biochemical
# Settings: peptide 100 μM
# Method in brief: as §1
row,Sequence,% activity [%]
1,FAKLAARLYRKALARQLGVAA [MMI-0300],57
2,HRRIKAWLKKIKALARQLGVAA (Mammal) [MMI-0500],30
3,KAFAKLAARLYRKALARQLGVAA [MMI-0400],67
4,YARAAARQARAKALNRQLGVA (Mammal) [MMI-0200],110

# Molecular target: TrkB(h) (Homo sapiens, UniProt Q16620)
# Experiment: Kinase Profiling Assay
# Type: biochemical
# Settings: peptide 100 μM
# Method in brief: as §1
row,Sequence,% activity [%]
1,FAKLAARLYRKALARQLGVAA [MMI-0300],5
2,HRRIKAWLKKIKALARQLGVAA (Mammal) [MMI-0500],12
3,KAFAKLAARLYRKALARQLGVAA [MMI-0400],8
4,YARAAARQARAKALARQLGVAA [MMI-0100],4
5,YARAAARQARAKALNRQLGVA (Mammal) [MMI-0200],7

# Molecular target: T4, Txk(h) (Homo sapiens, UniProt P42681)
# T4 sequence (P42681 1-527): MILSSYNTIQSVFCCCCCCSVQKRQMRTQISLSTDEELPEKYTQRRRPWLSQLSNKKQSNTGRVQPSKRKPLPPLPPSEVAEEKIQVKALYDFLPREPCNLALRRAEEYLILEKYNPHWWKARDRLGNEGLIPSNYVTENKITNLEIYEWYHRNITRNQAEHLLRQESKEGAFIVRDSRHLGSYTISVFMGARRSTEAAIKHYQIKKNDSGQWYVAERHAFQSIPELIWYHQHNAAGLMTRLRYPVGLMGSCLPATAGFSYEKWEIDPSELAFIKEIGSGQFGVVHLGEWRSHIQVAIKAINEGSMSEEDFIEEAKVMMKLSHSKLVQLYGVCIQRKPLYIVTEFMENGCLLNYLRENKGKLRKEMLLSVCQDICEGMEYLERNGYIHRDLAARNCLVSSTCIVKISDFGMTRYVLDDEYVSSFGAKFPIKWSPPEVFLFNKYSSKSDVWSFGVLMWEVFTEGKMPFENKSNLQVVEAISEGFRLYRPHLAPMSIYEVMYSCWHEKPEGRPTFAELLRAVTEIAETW
# Experiment: Kinase Profiling Assay
# Type: biochemical
# Settings: peptide 100 μM
# Method in brief: as §1
row,Sequence,% activity [%]
1,FAKLAARLYRKALARQLGVAA [MMI-0300],48
2,HRRIKAWLKKIKALARQLGVAA (Mammal) [MMI-0500],10
3,KAFAKLAARLYRKALARQLGVAA [MMI-0400],37
4,YARAAARQARAKALARQLGVAA [MMI-0100],87
5,YARAAARQARAKALNRQLGVA (Mammal) [MMI-0200],98
